Test results taken from a protein production outcome set (Wang et al. 2014).

Test: label from the status in PepcDB records

Sequence | protein production
MTIWLLQLVLVIALCNLCGRLAERLGQCAVVGEIAAGLLLGPSLFGVIAPSFYDLLFGPRTLSAMAQVGEVGLILLMFQIGLHMELSETLRGKRWRIPVAIAAGGLIAPAAIGMIVAIVSKDTLASDVPALPYILFCGVALAVSAVPVMARIIDDLALGAMVGARHAMSAAMLTDALGWMLLATIASLSSGPGWAFAHMLVSLLVYLVLCALLVRFVVRPVLARLASTAHATRDRLAVLLCFVIASALATSLIGFHSAFGALAAALFVRRVPGVAKEWRDNVEGFVKLVLMPVFFACAGLHASVGTIDDAASWMWCGVFLVGGFIGKFGGSYLGARGTGLAPHDAMLASSLMNTRGLMELIVLSIGLQMQILPPKVYTILVVFALVTTALTAPLVRFTLRMQTRAMSQQAA | failed
MTIYAAGLPAFLSYFSIGLVCFAIFSTIYTRLTPHEEVELIKAGNISAVVAFLGALIGFSLPLASAAAHSVSLPDYVIWAAIGLLVQVLAFYIAKLTMTDLHLKITEGNVAAGLWSGGIAVVIGTLNAACMAY | failed
MTIYNQAIESYDEKMAKDVIMLAGRILLESGAEGSRVEDTMTRIAITLGHKESNSFVTNTVINFMLHDESYPRMYRIRTRDTNLHRISRTNGISRRLALGDISLEDAFQELQKIYQEQSIKNHYLFYKFIAAAVISVSFLYLQGGHLTDVLTALLAGSFGYIVVEILQQKLHAQFIPEFMGALVIGLVTIIGHNLIPGGSISTIIIAAVMPIVPGVLITNAIQDLFGGHMLMFTTKSLEALVTAFGIGAGVSTVLIIF | failed
MTKFNWHESAEKKWDSSAEFWNQNSQEMWDSGSRSTIIPFFEQYVKKEAQVLDVGCGDGYGTYKLSRAGYKAVGVDISEVMIQKGKERGEGPDLSFIKGDLSSLPFENEQFEAIMAINSLEWTEEPLRALNEIKRVLKSDGYACIAILGPTAKPRENSYPRLYGKDVVCNTMMPWEFEQLVKEQGFKVVDGIGVYKRGVNEKMLGQLSTELQQSLTFLWVFMLKKHKEMKEFLGGK | failed
MTKIACVIVTYNRKQLLEEALNSVLIQTESPEYVFVIDNASTDGTEKYINDKFNFDNRQWHYVRCSQNLGGSAGFAQGMRLALQTDCSWISISDDDAIFEPGYFAALRKGIKQYPEQSVFSGSVLLPDGKHDMMHREVITNSATLTVRCVTDETYKHDFSYDIFSFVGILLSRQVIEAIGLPEQDYFIRFDDFEYAVRALKFGRFMNLSALEHHHHHH | failed
MTKKQKEILFCDYFEEWVEVYKVGAIAKITLAKYYNAAKQLRDLCPKLFISDFDRREYQRIINVYAETHEKQTVKDFHHHVKACIKDLFHDGLIDKDPTYRVVIKGAEPTRAKKRKFLQKEELSKLLQSLDMSQIGFGWFVMLVAKTGMRYAEALAITPADFDWTAQTISINKTWDYKYNKGFAKTKTLSSVRTIKIDWQIVGQFKPLIKDFPEDEPIFVEKFGDGTYKRQFNSTINNFLAVKCNETGITQISFHALRHTHASVLLAEGVSIHTISARLGHADVGVTQETYAHVLDELQKKDDQKMLSVLMQIA | failed
MTKLEQIQQWTAQHHASMTYLSNPKTIEYLTGFGSDPIERVLALVVFPDQDPFIFAPALEVEVIKETGWQFPVIGYLDHENPWAMIADQVKQRHVNPEHVAIEKGQLQVARMEALAAQFSAPSFDLDITSFIEHMR | not failed
MTKLINFLAEYQREIESQPIELDLALFSRLVGLPFEAVLTQPSAPLVEACMKLIEFVDNENYLILPADRQMLEQIAFSNRYQSVQICDVVQGPHRFLAATFVLSKTTKVIAFRGPNGTLLSWKADLHFSFSSINKLKIQAHQYLLQALQHDNQNIYCVGFSQGASIAALACMDISDTHRHRIQTIIFDSPGLPDDHYQSPIPIIELVPPLSLFALVGEHPFHQITISSSSTGIWQHDLYSWEADSHGEFAKNIGITNPTTIQHQFIQLLPSNITDENIDRTLNVAISIFSQLNFHSTSELIKHWNQFNALIQTEITAENIVVKTAILRLQKLIFKNAALNLQSIPLN | failed
MTKMNRETVITEALDLLDEVGLDGVSTRRLAKRLGVEQPSLYWYFRTKRDLLTAMAQAAMAPHAAEPLPEPGEDWHGWFLRNTRSFRRTLLARRDGARLHAGSRPTADLDRVRRKMDFLVASGVPERHAQMAMLAAGRFTVGCVLEEQAETGAGDTADLPADVPEIDHESAFEAGLALITDGLVRHVDAR | not failed
MTKNNILNNKITKVILFRICFIIAITTALVCGLKLNIINDGFWHIKVGEYIIKNRVIPREDIFSWYGIENKLKWISHEWLFGVIAYLVYKIKGFTSVIIFSTIVNCSTALLVYKFALIRNKNKVVSLIIMWVYIFGDFYDITYRPVLISKLILLCSFILLEKKKYLFALIVLILGVNIHGGIYPLYLMIFAYYTIPFSYKYLIFSLITVLINPYGYNLYKYTYLSMKNIDINRYINEWCITPIYDYKVALIIICITVCICTVSKIKFKDFLFCGALIILAISAKRHVDVIYLFVLPVISLYFNSFYFDFFMKFVSRIKPEKLKSIIPKLNYITCGFLIVVMIVKSSLCIKQYFFDTHFHNFEYITNDSENPIKACNFINSHQEIKNSRTFNDYNSSPYIIFRGIKTFVDSRQDLFTYNFNKTNAFVDQIKALNNYDYMIYVFKKYNIKYAILRNDMPNTRLLRNTDLIYIIYEDRDYSIFQINRNKLKSSNQRGV | failed
MTKPILKKKERVDQLFSTDVKIIQNKEVFSYSIDSVLLSRFPKIPSRGLIVDLCSGNGAVGLFAATRTKAKIIEVELQERLADMAQRSIQLNDLTNQVSMIRDDLKNLLDHVPRSKVDLILCNPPYFKAAETSKKNLSEHYLLARHEIATNLEEICKISQQVLKTNGRLAMVHRPDRFLEIIDTFKKYKLAPKRLQFVYPKLGKDANMLLIETIKDGSPNGMKILPPLIVHKDNGDYTDNIHEIYFGKGHQAYMYVLKCADDSLYTGYTTDIKKRLATHNAGKGAKYTRARLPVELIYVEQFNHKNAAMSAEGKLKQKTRAQKLHYIEEHQHINLVSQF | failed
MTKQPDLLKVDWSAIPAPDDDGAAAHLPGARIQPVALPATDGSSVTLSSLPGRTVLFIYPRTGVPGQISLVDDWDMIPGARGCTPQTCSFRDLFTDLKTAGADAVFGLSTQSSAYQSEMATRLHLPFPVLSDESLELTRALNMPTMQVAGMTLLKRMALIIDDGRISHVFYPVFPPDRNAGDVLEWLKANPR | failed
MTKQQKGFVTGQPTGALNLSDILDSEELGEYHLMSAAIITGNTVDFSGLGAGPDDPFEIASITKIFTGELLRLQIERGEITESTAVGDVLGERVADSLIRDITVEELANHTSGLPRLGNVGLRPFMATFFDKNPYKDLSADRVISISTTSKLNSRGEFHYSNLGFALLGQVLARNAGLTFDQLLDRDLLAPLNLNNTKLMTPESLAQDAPQGFSTPGKQVEAWEMDGFLPAAGLRSTARDMAVFCQYLFTKGPAPFTWQSLESAPEIVWHNGESFGYSSVLFFNTATTTAIFVAADVATSVFPIGHELLMANSTRQESKLEHHHHHH | failed
MTKRFKLKISRILSFKSCRLKDPSSLPFNPVSSSLRRTSPLVNSSADVTTVPQRRRSSFRLHVLTVFGCGRSSTPLDVDLRNSPVLSPPQTPTFQWESEGKWHVIAQVTEEEYETPRRKIYNGGSEKDNRRRLKKKEKSNSRRRGSISSAEEETDRESLLPSSTNLSPEYSSSELPRVTRRPRQLLKKAVIEEESESSSPPPSPARLSSFVQRLMPCTMAAAVMVEGVAVVKKSEDPYEDFKGSMMEMIVEKKMFEVAELEQLLSCFLSLNAKRHHRAIVRAFSEIWVALFSGGSGGGRRSSSFSSVRLSDYDEC | failed
MTKTAKVNDIVRDWVVLDAKDKVFGRLITEIAVLLRGKHRPFYTPNVDCGDFVVVINANKVKFSGMKLEDKEYFTHSGYFGSTKSKTLQEMLEKAPEKLYHLAVRGMLPKTKLGKAMIKKLKVYRDDKHPHTAQTSKKDAK | failed
MTKVIAITGKGGTGKTAVAALLIRSLSKKGQFILAVDADADTNLPETLGCENVKTIGDAKEFLQAEITKPRPDNPDMNKESVLQSKVYEIIEEMPGYDLLVMGRPEGSGCYCYVNNLLRGIMDKLVKNYDLVVIDAEAGLEHFSRKIIRDIDDLIVVTDASRRGFRTAERIHELVNELESNIGSIHVIANKVTDANREKLVKLAEELKLNLIGMIPLDPKIEEMDIKGIPLFEIPDDSVAAVEIENIVKKLGF | failed
MTKYLKYFIISMFRSRGLIFFGLFLILLSLIPNMLSISDSAHYSLKVLNHASRWYGLAILISFSIVSGTLAQMIYFSSSAIIYLHRHSKLSINRYYFESTLGAMVIFGIYALIILFATIVGYSYVSKNIIFPKKLLMLVLFTMLAGLFYFSLSFSLQAIATLLKKAHLIEYLAYFLISLTFLLGYLQVNTSLDVSLLVFLSPLNSILSLLIYGYSGILSFSVEFLLVTSLFYITVLQLISVWSLKRLKEVRIEDKLI | failed
MTLATATNEHLANISNTLIYSAMAVYTLAFFAYIAEWLFGSRSKVGRTAAALTHKTAAKAPAVTVKSAGGTAVLDRPQVVTRSAPGARDVPDGPGAHGGDEQGDLYGRIAVSLTVLAFAVEAAGVVARALSVQRAPWGNMYEFNITFSTVAVGVYLALLALKKNIRWLGLPLVTTVLLDLGLAVTVLYTASDQLVPALHSYWLYIHVSTAILCGAVFYVGAVGALLYLFKDSYENKLATGGQPGRFATSVMERLPASASLDKFSYRVNAAVFPLWTFTIIAGAIWAGDAWGRYWGWDPKETWAFITWVAYACYLHARATAGWKGRKAAYIALIAFACWLFNYYGVNIFVSGKHSYAGV | failed
MTLIPTDLSASRLSDAVRDPNREIAASSRVIDLSVGIVVCIPCFRRPQHLRLTLESLASQRTPRSFAVVMVENDAARRESAPVAAEYLADGRLQGICLVEQRQGNCQAINAAFETAQALFPAATRFLMIDDDEIASPDWLELMVRTAEATGADVVGGPVLPDFDDDSQPWLSRHPAFRPAYDYSGAVPLIYGCGNCLITRAAFDRLGSPAFDLRFNFLGGGDCDFFVRCRDAGMTFHWTTEAVITETVPQSRTSLGWIAKRGLRIGAINYRVQHKAAQGAAARVRVFAQMLGRLPLSLLRAARLLATSKAVVAMHPVMVALGSLLAALGIEPKPYEASKIVS | failed
MTLMCSIAGIYLAKLPYANIIGALVLALLLGILMQLAPEKMRKEASSGMSFISNKFLRLGIILLGFRLDLEKLAAAGVKTILVAALAVAGTITLTYWLSRKFGAEDELAFLSACGCGVCGAAAVMGVSPQITAASEERKRENEVLAVAVVCVMGTVFTLLEIGLKPVLGLTDSQFGIVAGGSLHEIAHAVASGGAFGNISLDSALIMKLSRVILLAPVALIIGYLYQRRTAKVSTIDSTTKTGKLPIPWFLGGFILTSVLGTYLPFSTSLLDALVQVAYIFLGMAMAALGISVNFKVIFKRGGAVFGAAAISSTCLLIFMIIMSKLFF | failed
MTLRAARPEFLDLFPAGAEARRLADGFTWTEGPVYVPARSAVIFSDVRQNRTWAWSDDGQLSPEMHPSHHQNGHCLNKQGHLIACSHGLRRLERQREPGGEWESIADSFEGKKLNSPNDVCLAPDGSLWFSDPTYGIDKPEEGYGGEMELPGRWVFRLAPDGTLSAPIRDRVKPNGLAFLPSGNLLVSDTGDNATHRYCLNARGETEYQGVHFTVEPGKTDGLRVDAGGLIWASAGDGVHVLTPDGDELGRVLTPQTTSNLCFGGPEGRTLYMTVSTEFWSIETNVRG | failed
